Data: patent publication US20050079613A1, “Downregulation of cell surface glycoproteins by a family of human ubiquitin ligases” (Oregon Health & Science University, priority 2002, published 2005)

Key:
Type in all cases: cell-based, human
HLA-A2.1 = experiment: Pulse-chase of HLA-A2.1 maturation and turnover in transfected HeLa cells; conditions: HeLa cells co-transfected with HLA-A2.1 and MARCH-IV, chase up to 8 hours
Protocol: Metabolic labeling, immunoprecipitation and Western blotting. HeLa cells were grown to 80% confluency in 100 mm tissue culture dishes and transfected as above. Cells were incubated in serum-free and methionine-free medium for 30 minutes, and metabolically labeled with ^35S-cysteine/^35S-methionine (250 μCi, Amersham) for the indicated time. After labeling, cells were washed twice with PBS and either lysed immediately in PBS containing 1% Triton X-100 and protease inhibitors (Roche, Indianapolis, Ind.), or the label was chased with excess (2 mM) unlabeled cysteine and methionine in the presence or absence of specific inhibitors for the indicated time. The cell lysates were precleared with protein A/G agarose beads and incubated with 3 μg of antibody for one hour and followed by two hours incubation with protein A/G beads. Immunoprecipated proteins were washed five times with 0.1% Triton X-100 in PBS. All samples were boiled in SDS buffer and analyzed by SDS-PAGE gel electrophoresis. Where indicated, samples were treated with Endoglycosidase H (Roche) according to manufacturer's instructions. Briefly, samples were initially denatured at 100° C. in 40 μl of 0.3% SDS, 150 mM 2-mercaptoethanol, 50 mM sodium acetate, pH 5.5 and incubated with 4 milli-Units of Endo H overnight at 37° C. All samples were boiled in SDS buffer and analyzed by SDS-PAGE gel electrophoresis. […]

CD4 = experiment: Surface expression of co-transfected CD4 on HeLa cells, flow cytometry
Protocol: (§1) Flow cytometry. Cells were removed from tissue culture dishes with 0.05% Trypsin-EDTA (Invitrogen), washed with ice-cold PBS, and incubated with appropriate antibody for 30 minutes at 4° C. The cells were washed with ice-cold PBS and either resuspended in ice-cold PBS or incubated with PE-conjugated anti-mouse secondary antibody (DAKO) and washed again before analysis with a BD Biosciences (San Jose, Calif.) FACScalibur flow cytometer.
The ability to downregulate MHC I is common to KSHV-K3, KSHV-K5, MHV68-K3 and MV-M153R (Coscoy and Ganem, 2000, supra; Guerin et al., 2002, supra; Ishido et al., 2000b supra; Stevenson et al., 2000, supra). Additional substrates are ICAM-1 and B7.2 (but not B7.1) for KSHV-K5, as well as CD95 and CD4 for M153R (Coscoy and Ganem, 2001, supra; Guerin et al., 2002, supra; Ishido et al., 2000a, supra; Mansouri et al., 2003, supra). Since only low copy numbers were detected in HeLa cells for transcripts corresponding to each of the MARCH-proteins (FIG. 7C, and data not shown), HeLa cells were transfected with expression plasmids for MARCH-I, II, III, IV, V and VIII. Surface expression of selected glycoproteins was monitored upon transfection. […] Surface expression of the respective markers was analyzed by flow cytometry. […]

HLA class I (MHC I) = experiment: Surface expression of endogenous MHC I on transfected HeLa cells, flow cytometry
Protocol: as §1
The ability to downregulate MHC I is common to KSHV-K3, KSHV-K5, MHV68-K3 and MV-M153R (Coscoy and Ganem, 2000, supra; Guerin et al., 2002, supra; Ishido et al., 2000b supra; Stevenson et al., 2000, supra). Additional substrates are ICAM-1 and B7.2 (but not B7.1) for KSHV-K5, as well as CD95 and CD4 for M153R (Coscoy and Ganem, 2001, supra; Guerin et al., 2002, supra; Ishido et al., 2000a, supra; Mansouri et al., 2003, supra). Since only low copy numbers were detected in HeLa cells for transcripts corresponding to each of the MARCH-proteins (FIG. 7C, and data not shown), HeLa cells were transfected with expression plasmids for MARCH-I, II, III, IV, V and VIII. Surface expression of selected glycoproteins was monitored upon transfection. The following known substrates for viral K3-family members were tested: Fas (CD95) and HLA class I (MHC I), both of which are endogenously expressed in HeLa cells, as well as transfected HLA-A2.1 or CD4. […] Surface expression of the respective markers was analyzed by flow cytometry. GFP was used to identify transfected cells.
With regards to whether MHC I downregulation by MARCH-IV was only observed at very high expression levels, since the viral immune evasion genes seem to be dedicated to MHC I downregulation, MHC I expression was compared at different expression levels of MARCH-IV or KSHV-K5 by taking advantage of the tetracycline-regulatable system to partially express either protein (Gossen, M. and H. Bujard, Proc. Natl. Acad. Sci. USA 89:5547-5551, 1992). Tet-off HeLa cells were transfected with either MARCH-IV or with KSHV-K5 in the presence of increasing amounts of tetracycline to shut off transcription. […]

MHC I = MHC I uptake assay in HeLa cells; conditions: transfected HeLa cells, 37° C. for 120 minutes
Protocol: Uptake Assay. Uptake of MHC I was measured as previously described (Ishido et al., 2000b, supra). In short, HeLa cells were transfected with MARCH-IV. Twenty four hours post-transfection cells were washed and an anti-MHC I antibody allowed to bind at 4° C. Cells were then either fixed immediately or transferred to 37° C. for 120 minutes to allow uptake of antibody bound glycoproteins. Antibody bound to glycoprotein was visualized using an Alexaflour:594-conjugated secondary antibody.
The observed downregulation of MHC I and CD4 by MARCH-IV permitted the study of the molecular mechanism by which MARCH-proteins reduce glycoprotein levels. […] The only known exception is MHV68-K3 which mediates proteasomal degradation of MHC I prior to its exit from the ER (Boname and Stevenson, 2001, supra). To study if MHC I was internalized by MARCH-IV, the recycling of MHC I in MARCH-IV transfected and non-transfected cells over the course of 2 hours was compared. MHC I on MARCH-IV transfected or non-transfected cells was labeled with anti-MHC I antibody at 4° C.

B1: MARCH-IV: human membrane-associated RING-CH ubiquitin ligase, SEQ ID NOS:45 and 57; construct used lacks the first 63 amino-acids (protein)
chain: WYCYGLCAPAPQMLRHQGLLKCRCRMLFNDLKVFLLRRPPQAPLPMHGDPQPPGLAANNTLPALGAGGWAGWRGPREVVGREPPPVPPPPPLPPSSVEDDWGGPATEPPASLLSSASSDDFCKEKTEDRYSLGSSLDSGMRTPLCRICFQGPEQGELLSPCRCDGSVKCTHQPCLIKWISERGCWSCELCYYKYHVIAISTKNPLQWQAISLTVIEKVQVAAAILGSLFLIASISWLIWSTFSPSARWQRQDLLFQICYGMYGFMDVVCIGLIIHEGPSVYRIFKRWQAVNQQWKVLNYDKTKDLEDQKAGGRTNPRTSSSTQANIPSSEEETAGTPAPEQGPAQAAGHPSGPLSHHHCAYTILHILSHLRPHEQRSPPGSSRELVMRVTTV
**Q.** B1 was tested. Which “fate of HLA-A2.1 in pulse-chase” value (HLA-A2.1) did it give?
**A.** The value was “exits the ER but is degraded”.

**Q.** And the “surface expression of transfected CD4” value (CD4; HeLa cells co-transfected with CD4 and MARCH plasmid)?
**A.** Its value is “reduced the surface expression”.

**Q.** What about the “downregulation of CD4 with lysines removed from the cytoplasmic tail” value (CD4; HeLa cells, lysine-deleted CD4) of the same molecule?
**A.** Its value is “resistance”.

**Q.** And the “surface expression of MHC I” value (HLA class I (MHC I); HeLa cells transfected with MARCH plasmid and GFP, 24 h post-transfection)?
**A.** The value was “significantly downregulated”.

**Q.** And the “MHC I downregulation at tetracycline-regulated expression levels” value (HLA class I (MHC I); Tet-off HeLa cells, increasing amounts of tetracycline, below the detectable level of RING-CH protein expression)?
**A.** Its value is “partial MHC I downregulation”.

**Q.** And the “internalization (uptake) of antibody-labeled MHC I” value (MHC I)?
**A.** The value was “rapid internalization”.
